Assay results reported in the supplement of paper PMC9112550, “Optimization of the antimicrobial peptide Bac7 by deep mutational scanning” (BMC Biology, 2022).

Tested on: Escherichia coli TOP10
Experiment: shrunken log2 fold change of peptide-encoding DNA abundance (4.5 h post-induction vs induction); higher = less antimicrobial activity (less host growth inhibition)
Settings: time post-induction: 4.5 h; library: site-saturation at positions 5, 18, 19, 20
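Further: peptides expressed intracellularly from a pBAD plasmid library in pooled LB shake-flask culture, induced with 0.3% L-arabinose, DNA abundance read by NGS, three biological replicates, DESeq2 with apeglm shrinkage.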

Row | Sequence | shrunken log2 fold change
1 | RRIRQRPPRLPRPRPRPMYEPRP | -0.01
2 | RRIRARPPRLPRPRPRPCTHPRP | -0.182
3 | RRIRWRPPRLPRPRPRPWMYPRP | -0.02
4 | RRIRIRPPRLPRPRPRPGWKPRP | -0.0134
5 | RRIRGRPPRLPRPRPRPCDIPRP | -0.00533
6 | RRIRRRPPRLPRPRPRPMAGPRP | 0.111
7 | RRIRDRPPRLPRPRPRPFEKPRP | 0.00649
8 | RRIRARPPRLPRPRPRPWYYPRP | -0.628
9 | RRIRMRPPRLPRPRPRPLWNPRP | -0.182
10 | RRIRARPPRLPRPRPRPSLHPRP | 0.162
11 | RRIRNRPPRLPRPRPRPEYAPRP | -0.175
12 | RRIRPRPPRLPRPRPRPNCHPRP | 0.0382
13 | RRIRMRPPRLPRPRPRPNIKPRP | -0.266
14 | RRIRERPPRLPRPRPRPDEKPRP | 0.147
15 | RRIRDRPPRLPRPRPRPHYIPRP | -1.02
16 | RRIRQRPPRLPRPRPRPIFFPRP | -0.0319
17 | RRIRYRPPRLPRPRPRPWCFPRP | -0.369
18 | RRIRTRPPRLPRPRPRPGFDPRP | -0.164
19 | RRIRKRPPRLPRPRPRPSSAPRP | 0.214
20 | RRIRARPPRLPRPRPRPNAHPRP | 0.437
21 | RRIRVRPPRLPRPRPRPQFTPRP | -0.697
22 | RRIRNRPPRLPRPRPRPQMSPRP | -0.0396
23 | RRIRDRPPRLPRPRPRPFDLPRP | -0.312
24 | RRIRWRPPRLPRPRPRPEFGPRP | 0.393
25 | RRIRPRPPRLPRPRPRPYTWPRP | -0.446

Row | Sequence | shrunken log2 fold change
26 | RRIRDRPPRLPRPRPRPGPFPRP | 0.174
27 | RRIRNRPPRLPRPRPRPHNRPRP | 0.0237
28 | RRIRERPPRLPRPRPRPVMWPRP | 0.0878
29 | RRIRARPPRLPRPRPRPWKDPRP | -0.0732
30 | RRIRGRPPRLPRPRPRPQVKPRP | 0.564
31 | RRIRWRPPRLPRPRPRPQMIPRP | -0.0866
32 | RRIRTRPPRLPRPRPRPCCTPRP | -0.0782
33 | RRIRGRPPRLPRPRPRPVKEPRP | 0.604
34 | RRIRCRPPRLPRPRPRPHWCPRP | -0.155
35 | RRIRCRPPRLPRPRPRPKHLPRP | -0.122
36 | RRIRCRPPRLPRPRPRPVGTPRP | -0.149
37 | RRIRCRPPRLPRPRPRPDPFPRP | -0.187
38 | RRIRPRPPRLPRPRPRPFPIPRP | -0.371
39 | RRIRKRPPRLPRPRPRPCIYPRP | -0.198
40 | RRIRFRPPRLPRPRPRPAWEPRP | 0.62
41 | RRIRGRPPRLPRPRPRPSCAPRP | 1.08
42 | RRIRQRPPRLPRPRPRPSWEPRP | -0.141
43 | RRIRQRPPRLPRPRPRPWVHPRP | -0.0494
44 | RRIRPRPPRLPRPRPRPQFKPRP | 0.0824
45 | RRIRFRPPRLPRPRPRPLWMPRP | -0.0523
46 | RRIRMRPPRLPRPRPRPIMWPRP | -0.042
47 | RRIRWRPPRLPRPRPRPNRAPRP | 0.0222
48 | RRIRQRPPRLPRPRPRPRTVPRP | 0.349
49 | RRIRIRPPRLPRPRPRPVFVPRP | -0.397
50 | RRIRWRPPRLPRPRPRPENWPRP | 0.254

Row | Sequence | shrunken log2 fold change
51 | RRIRWRPPRLPRPRPRPICKPRP | -0.0506
52 | RRIRFRPPRLPRPRPRPCEIPRP | -0.348
53 | RRIRFRPPRLPRPRPRPDYSPRP | -0.458
54 | RRIRMRPPRLPRPRPRPNFVPRP | 0.0215
55 | RRIRQRPPRLPRPRPRPQLPPRP | -0.23
56 | RRIRDRPPRLPRPRPRPDMRPRP | 0.0382
57 | RRIRHRPPRLPRPRPRPAISPRP | -0.121
58 | RRIRDRPPRLPRPRPRPNKCPRP | -0.104
59 | RRIRVRPPRLPRPRPRPHSQPRP | 0.288
60 | RRIRPRPPRLPRPRPRPVTYPRP | -0.0866
61 | RRIRNRPPRLPRPRPRPQKTPRP | -0.0033
62 | RRIRMRPPRLPRPRPRPEMDPRP | 3.88
63 | RRIRMRPPRLPRPRPRPDMAPRP | 1.86
64 | RRIRVRPPRLPRPRPRPCQWPRP | -0.0851
65 | RRIRTRPPRLPRPRPRPIMMPRP | -0.267
66 | RRIRNRPPRLPRPRPRPGVNPRP | 0.0306
67 | RRIRHRPPRLPRPRPRPGIIPRP | -0.0698
68 | RRIRWRPPRLPRPRPRPRWHPRP | 0.271
69 | RRIRFRPPRLPRPRPRPQEWPRP | -0.149
70 | RRIRVRPPRLPRPRPRPVKAPRP | 0.0603
71 | RRIRPRPPRLPRPRPRPLFKPRP | -0.348
72 | RRIRERPPRLPRPRPRPVFLPRP | -0.474
73 | RRIRPRPPRLPRPRPRPSIDPRP | -0.598
74 | RRIRSRPPRLPRPRPRPLLTPRP | 0.085
75 | RRIRFRPPRLPRPRPRPPYSPRP | -0.235

Row | Sequence | shrunken log2 fold change
76 | RRIRPRPPRLPRPRPRPMCLPRP | -0.0489
77 | RRIRVRPPRLPRPRPRPNTYPRP | -0.71
78 | RRIRMRPPRLPRPRPRPQCCPRP | 0.00357
79 | RRIRVRPPRLPRPRPRPSHMPRP | -0.585
80 | RRIRKRPPRLPRPRPRPSHEPRP | -0.218
81 | RRIRVRPPRLPRPRPRPVNIPRP | -0.584
82 | RRIRVRPPRLPRPRPRPFACPRP | -0.395
83 | RRIRFRPPRLPRPRPRPSDIPRP | -0.385
84 | RRIRNRPPRLPRPRPRPWHYPRP | -0.25
85 | RRIRLRPPRLPRPRPRPMLAPRP | 0.369
86 | RRIRDRPPRLPRPRPRPVNTPRP | -0.327
87 | RRIRARPPRLPRPRPRPLCTPRP | 0.223
88 | RRIRLRPPRLPRPRPRPWYRPRP | -0.3
89 | RRIRTRPPRLPRPRPRPKDFPRP | -0.00116
90 | RRIRPRPPRLPRPRPRPKGEPRP | 0.125
91 | RRIRIRPPRLPRPRPRPEKGPRP | -0.257
92 | RRIRHRPPRLPRPRPRPQQGPRP | -0.14
93 | RRIRQRPPRLPRPRPRPAHDPRP | -0.161
94 | RRIRYRPPRLPRPRPRPTVLPRP | 0.00488
95 | RRIRDRPPRLPRPRPRPFMFPRP | 0.033
96 | RRIRVRPPRLPRPRPRPLDVPRP | -0.277
97 | RRIRHRPPRLPRPRPRPTPCPRP | 0.00473
98 | RRIRVRPPRLPRPRPRPVASPRP | 0.187
99 | RRIRFRPPRLPRPRPRPPLFPRP | 0.273
100 | RRIRMRPPRLPRPRPRPMPEPRP | 0.627

Row | Sequence | shrunken log2 fold change
101 | RRIRYRPPRLPRPRPRPFRKPRP | -0.00664
102 | RRIRMRPPRLPRPRPRPLGYPRP | -0.264
103 | RRIRHRPPRLPRPRPRPDQAPRP | 0.106
104 | RRIRERPPRLPRPRPRPLVHPRP | -0.158
105 | RRIRNRPPRLPRPRPRPPQPPRP | 0.621
106 | RRIRARPPRLPRPRPRPKPLPRP | 0.455
107 | RRIRCRPPRLPRPRPRPKDFPRP | -0.0611
108 | RRIRWRPPRLPRPRPRPCWFPRP | 0.0945
109 | RRIRCRPPRLPRPRPRPLKDPRP | -0.0917
110 | RRIRMRPPRLPRPRPRPNERPRP | 0.69
111 | RRIRNRPPRLPRPRPRPNMLPRP | -0.772
112 | RRIRIRPPRLPRPRPRPRKPPRP | -0.0479
113 | RRIRWRPPRLPRPRPRPEKPPRP | 2.12
114 | RRIRGRPPRLPRPRPRPQWKPRP | 0.113
115 | RRIRGRPPRLPRPRPRPEELPRP | 1.39
116 | RRIRRRPPRLPRPRPRPVAFPRP | 0.383
117 | RRIRNRPPRLPRPRPRPDEHPRP | -0.415
118 | RRIRHRPPRLPRPRPRPRPPPRP | 1.15
119 | RRIRARPPRLPRPRPRPLRPPRP | 1.08
120 | RRIRYRPPRLPRPRPRPYYYPRP | -0.476
121 | RRIRWRPPRLPRPRPRPLEAPRP | 0.668
122 | RRIRMRPPRLPRPRPRPIFFPRP | 0.276
123 | RRIRNRPPRLPRPRPRPPTGPRP | 0.154
124 | RRIRVRPPRLPRPRPRPCHKPRP | -0.203
125 | RRIRLRPPRLPRPRPRPFLYPRP | -0.656

Row | Sequence | shrunken log2 fold change
126 | RRIRHRPPRLPRPRPRPIGKPRP | 0.0218
127 | RRIRGRPPRLPRPRPRPFWWPRP | 0.806
128 | RRIRERPPRLPRPRPRPYASPRP | -0.303
129 | RRIRHRPPRLPRPRPRPYYLPRP | -0.72
130 | RRIRERPPRLPRPRPRPNIGPRP | -0.00187
131 | RRIRSRPPRLPRPRPRPRRYPRP | -0.0572
132 | RRIRWRPPRLPRPRPRPKMGPRP | 0.0381
133 | RRIRIRPPRLPRPRPRPSMGPRP | -0.222
134 | RRIRWRPPRLPRPRPRPSNTPRP | -0.355
135 | RRIRCRPPRLPRPRPRPHTGPRP | -0.341
136 | RRIRGRPPRLPRPRPRPSACPRP | 1.5
137 | RRIRPRPPRLPRPRPRPYFIPRP | -0.656
138 | RRIRCRPPRLPRPRPRPNKDPRP | -0.534
139 | RRIRDRPPRLPRPRPRPSLFPRP | 0.205
140 | RRIRSRPPRLPRPRPRPSLQPRP | -0.606
141 | RRIRYRPPRLPRPRPRPNTYPRP | -0.988
142 | RRIRPRPPRLPRPRPRPTEGPRP | -0.0468
143 | RRIRWRPPRLPRPRPRPPHCPRP | 0.754
144 | RRIRRRPPRLPRPRPRPQECPRP | -0.0184
145 | RRIRQRPPRLPRPRPRPMHFPRP | 0.169
146 | RRIRSRPPRLPRPRPRPPCNPRP | -0.21
147 | RRIRWRPPRLPRPRPRPWHYPRP | -0.0627
148 | RRIRHRPPRLPRPRPRPLICPRP | -0.493
149 | RRIRFRPPRLPRPRPRPKHHPRP | -0.282
150 | RRIRKRPPRLPRPRPRPLRCPRP | 0.35
